Biological target: Keap1 Kelch domain (recombinant) (human, UniProt Q14145 321-609)
Assay: ITC

Chain of Keap1 Kelch domain (recombinant) (Q14145 321-609): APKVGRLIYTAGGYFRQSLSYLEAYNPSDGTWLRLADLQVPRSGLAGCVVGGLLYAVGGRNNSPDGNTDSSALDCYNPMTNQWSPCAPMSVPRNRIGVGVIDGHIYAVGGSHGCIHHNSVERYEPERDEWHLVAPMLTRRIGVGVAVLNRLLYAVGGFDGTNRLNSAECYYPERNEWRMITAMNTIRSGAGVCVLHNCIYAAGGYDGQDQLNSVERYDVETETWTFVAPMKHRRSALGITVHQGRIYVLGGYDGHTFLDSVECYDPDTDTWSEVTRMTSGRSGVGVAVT

B1: Marburg virus VP24 (recombinant, used for ITC) (natural protein)
chain: MAELSTRYNLPANVTENSINLDLNSTARWIKEPSVGGWTVKWGNFVFHIPNTGMTLLHHLKSNFVVPEWQQTRNLFSHLFKNPKSTIIEPFLALRILLGVALKDQELQQSLIPGFRSIVHMLSEWLLLEVTSAIHISPNLLGIYLTSDMFKILMAGVKNFFNKMFTLHVVNDHGKPSSIEIKLTGQQIIITRVNMGFLVEVRRIDIEPCCGETVLSESVVFGLVAEAVLREHSQMEKGQPLNLTQYMNSKIAI
B1 was tested. Which Kd did it give?
Its Kd is 158 ± 20 nM.
